Measurements published in patent publication US20220112295A1 (Novo Nordisk, published 2022).
Positions count from the first letter of the chain named. One block for each binder: values may come before it.

Legend:
[1] = target: T1, recombinant human CD30L isoleucine zipper (huCD30L LZ) (human, UniProt P32971 63-234); experiment: blocking of human CD30L LZ binding to K299 cells (CD30)
T1 construct: also called huCD38L LZ; CD30L LZ Hu; not shown: N-terminal isoleucine zipper motif (leucine zipper with leucines replaced by isoleucines)
T1 sequence: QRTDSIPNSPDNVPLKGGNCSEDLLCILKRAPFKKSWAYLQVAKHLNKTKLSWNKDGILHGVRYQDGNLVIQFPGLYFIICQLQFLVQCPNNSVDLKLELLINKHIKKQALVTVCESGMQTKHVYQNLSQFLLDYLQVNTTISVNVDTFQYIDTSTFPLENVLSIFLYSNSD

[2] = target: T1, recombinant human CD30L isoleucine …; experiment: cell-based or functional assay
[3] = target: T2, native human CD30L expressed on Ramos cells (human, UniProt P32971 1-234); experiment: cell-based or functional assay
T2 sequence: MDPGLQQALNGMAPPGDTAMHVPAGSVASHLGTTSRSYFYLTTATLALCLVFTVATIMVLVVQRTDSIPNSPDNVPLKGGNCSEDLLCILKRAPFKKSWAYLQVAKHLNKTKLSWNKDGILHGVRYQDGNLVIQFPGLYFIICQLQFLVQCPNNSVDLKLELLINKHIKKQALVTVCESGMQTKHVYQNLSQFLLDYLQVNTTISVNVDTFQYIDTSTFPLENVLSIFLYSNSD

cyno CD30L LZ = target: T3, cyno CD30L LZ (cynomolgus monkey, UniProt A0A7N9CVX7 63-234); experiment: cell-based or functional assay
T3 sequence: T1 sequence with V13I, K16R, I142V, I165V

[4] = target: T4, FLAG-hCD30L-EC (N153Q) treated with PNGaseF (human); experiment: HX-MS, 6 uM hCD30L with 6.6 uM mAb
T4 construct: also called FLAG-hCD30L-EC + PNGaseF
T4 chain: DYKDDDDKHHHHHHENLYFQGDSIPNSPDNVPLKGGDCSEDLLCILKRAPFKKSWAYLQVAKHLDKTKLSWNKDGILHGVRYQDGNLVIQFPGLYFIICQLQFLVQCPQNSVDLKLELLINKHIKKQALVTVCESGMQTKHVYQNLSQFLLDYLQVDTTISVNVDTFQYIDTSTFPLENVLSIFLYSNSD

IC50 [1]: 1.4 nM
IC50, inhibition of IL-8 release (K299 single cell assay with huCD30L LZ) [2]: 2700 pM
IC50, inhibition of IL-8 release (K299/Ramos dual cell assay) [3]: 33 pM
IC50, inhibition of IL-8 release (K299 single cell assay with cyno CD30L LZ) (cyno CD30L LZ): 2.4 nM
binding result [4]: binds
B1: Antibody A1 (antibody, V domains shown)
VH: QVQLQESGPGLVKPSETLSLTCTVSGGSISSYIWSWIRQPAGKGLEWIGRIYASGNTNYNPSLKSRVTISVDTSKNQFSLKLSSMTAADTAVYYCARDYRVAGTYYYYYGLDVWGQGTTVTVSS
VL: QSALTQPASVSGSPGQSITISCTGTSSDVGVYDYVSWYQQHPGKAPKLMIYEVSNRPSGVSNRFSGSKSGNTASLTISGLQTEDEADYYCSSYTSRSTWVFGGGTKLTVL
notes: also called mAb A1; Antibody A1 IgG2

IC50, inhibition of IL-8 release (K299/Ramos dual cell assay) [3]: 32 pM
IC50, inhibition of IL-8 release (K299 single cell assay with cyno CD30L LZ) (cyno CD30L LZ): 1.5 nM
B2: Antibody A1 IgG1 (antibody, V domains shown)
VH: B1 VH
VL: B1 VL
